Data on one substance can be found in article PMC6637311, “Glyceraldehyde-3-Phosphate Dehydrogenase of Babesia microti Is a Plasminogen- and Actin-Binding Protein” (Frontiers in Veterinary Science, 2019).

This series deals with O=C[C@H](O)COP(=O)(O)O. Put plainly: purified protein. The settings on record: 0.5 mM NAD+, 50 mM glycine, 50 mM KH2PO4, 5 mM EDTA, pH 9.5, 25 °C.

As for rBmGAPDH (Babesia microti strain RI), the Michaelis-Menten constant (Km) amounted to 583 µM.

One may read the Km as the substrate concentration at which the rate is half of its maximum.
